Measured values reported in article PMC12212138, “Crystal structure and mutagenesis of a nucleic acid–binding BRCT domain in human PARP4”.

Experiments:
Conditions in all cases: protein: recombinant; tags: N-terminal His-SUMO removed by TEV; label: 5'-6-FAM; predicted intramolecular fold
PARP4 BRCT F39A = molecular target: T1, PARP4 BRCT F39A (human, UniProt Q9UKK3 1-100, F39A); test: EMSA; 20 nM probe; FP: 50 mM Tris pH 7.5, 50 mM NaCl, 1 mM MgCl2, 0.05% NP40, 2 mM DTT, 5% glycerol, 25 ug/ml BSA, room temp 30 min; EMSA: 50 mM Tris pH 7.5, 50 mM NaCl, 4% Ficoll PM400, 0.05% NP40, 2 mM DTT, 0-18 uM protein, room temp 30 min, gel at 4 C
T1 sequence: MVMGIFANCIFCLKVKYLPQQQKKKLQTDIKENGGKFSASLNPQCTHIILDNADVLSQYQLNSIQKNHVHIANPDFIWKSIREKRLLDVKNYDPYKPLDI

PARP4 BRCT WT [1] = molecular target: T2, PARP4 BRCT WT (human, UniProt Q9UKK3 1-100); test: as above
T2 sequence: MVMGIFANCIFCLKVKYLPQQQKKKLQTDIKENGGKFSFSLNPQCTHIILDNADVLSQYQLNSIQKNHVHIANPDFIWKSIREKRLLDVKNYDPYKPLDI

PARP4 BRCT WT [2] = molecular target: T2, PARP4 BRCT WT; test: FP; 3 nM probe, probe concentration comparison; FP: 50 mM Tris pH 7.5, 50 mM NaCl, 1 mM MgCl2, 0.05% NP40, 2 mM DTT, 5% glycerol, 25 ug/ml BSA, room temp 30 min; EMSA: 50 mM Tris pH 7.5, 50 mM NaCl, 4% Ficoll PM400, 0.05% NP40, 2 mM DTT, 0-18 uM protein, room temp 30 min, gel at 4 C

B1: vtRNA1-3 (structured_RNA)
RNA: GGCUGGCUUUAGCUCAGCGGUUACUUCGCGUGUCAUCAAACCACCUCUCUGGGUUGUUCGAGACCCGCGGGCGCUCUCCAGCCCUCUU
PARP4 BRCT F39A
  Kd: 600 ± 100 nM
PARP4 BRCT WT [1]
  Kd: 500 ± 200 nM
PARP4 BRCT WT [2]
  Kd: 19000 ± 3000 nM
